Literature values, collected in publication PMC7887631.
pKd: −log10 of the molar value.

Molecular target: Prion protein (PrPC) (UniProt P04156)

STI1 (from UniProt P31948)
pKd: 7.00
